Assay results published in patent publication US20210371536A1 (SEOUL NATIONAL UNIVERSITY R AND DB FOUNDATION, published 2021).
One block for each binder: values may come before it.

Columns and labels:
mPDGFR-β on NIH3T3 cells [1] = molecular target: T1, mPDGFR-β on NIH3T3 cells (mouse, UniProt P05622 32-1098); test: flow cytometry on NIH3T3 cells expressing mPDGFR-β, streptavidin-PE detection
T1 construct: whole, on cells; also called NIH3T3 cells expressing mPDGFR-β; PDGFR-β present on the cell surface
T1 sequence (P05622 32-1098): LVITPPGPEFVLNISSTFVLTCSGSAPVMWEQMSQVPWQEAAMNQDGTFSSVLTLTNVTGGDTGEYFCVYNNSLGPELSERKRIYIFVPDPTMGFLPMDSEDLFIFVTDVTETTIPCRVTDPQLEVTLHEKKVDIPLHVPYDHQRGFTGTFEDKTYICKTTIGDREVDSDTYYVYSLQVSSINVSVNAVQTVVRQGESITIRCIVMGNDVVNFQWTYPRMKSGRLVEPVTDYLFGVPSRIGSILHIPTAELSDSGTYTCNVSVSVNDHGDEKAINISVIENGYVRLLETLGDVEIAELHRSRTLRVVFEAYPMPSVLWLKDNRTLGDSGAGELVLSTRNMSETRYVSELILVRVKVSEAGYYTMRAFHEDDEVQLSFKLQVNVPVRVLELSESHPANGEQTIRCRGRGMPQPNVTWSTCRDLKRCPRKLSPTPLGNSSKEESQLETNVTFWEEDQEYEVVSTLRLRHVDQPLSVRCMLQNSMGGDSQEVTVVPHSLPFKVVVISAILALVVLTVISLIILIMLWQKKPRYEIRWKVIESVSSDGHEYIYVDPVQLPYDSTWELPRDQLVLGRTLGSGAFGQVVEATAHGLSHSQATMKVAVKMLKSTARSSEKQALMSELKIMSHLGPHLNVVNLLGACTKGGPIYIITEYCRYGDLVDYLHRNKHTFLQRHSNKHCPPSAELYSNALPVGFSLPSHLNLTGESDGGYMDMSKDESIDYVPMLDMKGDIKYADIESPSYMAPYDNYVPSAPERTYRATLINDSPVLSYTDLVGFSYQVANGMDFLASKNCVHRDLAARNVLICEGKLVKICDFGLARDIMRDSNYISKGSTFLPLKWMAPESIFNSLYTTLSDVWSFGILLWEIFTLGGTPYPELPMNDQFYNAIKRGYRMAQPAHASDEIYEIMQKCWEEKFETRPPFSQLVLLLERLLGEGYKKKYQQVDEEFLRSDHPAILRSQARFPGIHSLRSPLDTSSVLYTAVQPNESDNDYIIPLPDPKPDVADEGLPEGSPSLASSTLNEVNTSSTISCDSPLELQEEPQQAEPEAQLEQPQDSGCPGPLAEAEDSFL
Description: The cells were treated with APC-anti human Cκ antibody and streptavidin-PE.
After washing, it was classified and analyzed with a FACS Canto II instrument (BD Biosciences, San Jose, Calif., USA). 10,000 cells were used for each measurement, and the results were analyzed by FlowJo (Tree Star, Ashland, Oreg., USA).

[2] = molecular target: hPDGFR-β on human pericyte cells (human, UniProt P09619 33-1106); test: cell-based or functional assay
Chain of hPDGFR-β on human pericyte cells (P09619 33-1106): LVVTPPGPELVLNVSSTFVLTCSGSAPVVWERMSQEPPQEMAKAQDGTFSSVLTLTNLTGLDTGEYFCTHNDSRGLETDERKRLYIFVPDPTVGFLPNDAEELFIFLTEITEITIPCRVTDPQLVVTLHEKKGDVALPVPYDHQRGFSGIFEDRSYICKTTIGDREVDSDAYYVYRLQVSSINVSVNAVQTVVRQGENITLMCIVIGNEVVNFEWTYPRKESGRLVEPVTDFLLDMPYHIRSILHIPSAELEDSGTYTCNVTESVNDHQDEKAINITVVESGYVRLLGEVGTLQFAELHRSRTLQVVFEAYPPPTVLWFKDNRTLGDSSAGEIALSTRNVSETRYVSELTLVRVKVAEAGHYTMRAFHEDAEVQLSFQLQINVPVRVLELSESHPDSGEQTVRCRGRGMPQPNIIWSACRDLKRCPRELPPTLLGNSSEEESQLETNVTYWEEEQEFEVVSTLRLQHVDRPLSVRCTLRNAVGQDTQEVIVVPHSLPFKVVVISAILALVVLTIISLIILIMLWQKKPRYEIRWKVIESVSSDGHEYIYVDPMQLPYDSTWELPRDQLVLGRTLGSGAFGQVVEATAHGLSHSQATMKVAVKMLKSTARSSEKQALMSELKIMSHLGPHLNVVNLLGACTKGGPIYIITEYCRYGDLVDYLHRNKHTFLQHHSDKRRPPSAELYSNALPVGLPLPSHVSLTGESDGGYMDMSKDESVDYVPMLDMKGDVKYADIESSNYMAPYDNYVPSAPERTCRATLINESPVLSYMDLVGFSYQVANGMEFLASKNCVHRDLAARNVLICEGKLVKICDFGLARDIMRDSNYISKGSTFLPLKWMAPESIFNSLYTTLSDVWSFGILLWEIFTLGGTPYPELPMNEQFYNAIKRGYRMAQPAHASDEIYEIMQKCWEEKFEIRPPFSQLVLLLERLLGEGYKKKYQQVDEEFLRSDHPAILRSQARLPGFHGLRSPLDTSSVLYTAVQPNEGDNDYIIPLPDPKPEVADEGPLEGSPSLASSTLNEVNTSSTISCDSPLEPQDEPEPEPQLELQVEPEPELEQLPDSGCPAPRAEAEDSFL

[3] = molecular target: T2, cynomolgus monkey PDGFR-β (Fc chimera) (cynomolgus monkey); test: cross-species ELISA on coated antigen, 100 nM bispecific, HRP-anti-human Cκ detection
T2 construct: not shown: human Fc (hFc) and its junction to the receptor part
T2 chain: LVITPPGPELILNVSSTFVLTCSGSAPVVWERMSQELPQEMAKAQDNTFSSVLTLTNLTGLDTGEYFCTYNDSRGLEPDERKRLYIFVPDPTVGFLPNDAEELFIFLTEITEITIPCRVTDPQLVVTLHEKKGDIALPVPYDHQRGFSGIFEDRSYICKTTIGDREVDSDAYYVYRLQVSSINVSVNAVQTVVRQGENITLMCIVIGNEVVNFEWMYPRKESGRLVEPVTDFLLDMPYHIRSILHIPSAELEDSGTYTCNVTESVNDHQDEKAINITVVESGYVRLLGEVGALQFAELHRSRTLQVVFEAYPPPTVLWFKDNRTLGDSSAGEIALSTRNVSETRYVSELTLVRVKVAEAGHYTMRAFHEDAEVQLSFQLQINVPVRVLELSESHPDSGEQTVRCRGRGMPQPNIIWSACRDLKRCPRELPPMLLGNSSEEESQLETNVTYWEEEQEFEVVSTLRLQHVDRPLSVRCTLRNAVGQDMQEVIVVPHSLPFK

[4] = molecular target: T3, Sus scrofa PDGFR-β-Fc chimera (Sus scrofa, UniProt Q6QNF3 33-530 (dog entry)); test: as above
T3 construct: also called Sus crowfa PDGFR-β; not shown: human Fc (hFc) and its junction to the receptor part
T3 chain: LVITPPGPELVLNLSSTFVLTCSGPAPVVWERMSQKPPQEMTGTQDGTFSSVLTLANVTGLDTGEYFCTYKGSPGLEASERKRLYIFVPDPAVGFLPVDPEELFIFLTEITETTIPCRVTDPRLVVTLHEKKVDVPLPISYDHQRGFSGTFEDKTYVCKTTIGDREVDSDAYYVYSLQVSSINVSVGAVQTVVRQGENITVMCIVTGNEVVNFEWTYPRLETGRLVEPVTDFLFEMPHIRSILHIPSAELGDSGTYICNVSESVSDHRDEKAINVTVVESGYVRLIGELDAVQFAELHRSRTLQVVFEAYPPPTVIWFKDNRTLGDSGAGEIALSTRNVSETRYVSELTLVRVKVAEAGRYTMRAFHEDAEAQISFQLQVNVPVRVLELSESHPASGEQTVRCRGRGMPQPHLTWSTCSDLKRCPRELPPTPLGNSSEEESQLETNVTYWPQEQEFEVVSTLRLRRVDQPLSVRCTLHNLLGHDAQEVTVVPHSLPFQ

mPDGFR-β on NIH3T3 cells [5] = molecular target: T1, mPDGFR-β on NIH3T3 cells; test: flow cytometry on NIH3T3 cells expressing mPDGFR-β, 100 nM, APC-anti human Cκ detection

binding result (mPDGFR-β on NIH3T3 cells [1]): binds
B1: mPDGF-BB-biotin (ligand, mouse, UniProt P31240 82-190, looked up)
chain: SLGSLAAAEPAVIAECKTRTEVFQISRNLIDRTNANFLVWPPCVEVQRCSGCCNNRNVQCRASQVQMRPVQVRKIEIVRKKPIFKKATVTLEDHLACKCETIVTPRPVT
modifications: biotinylated (biotin-xx microscale protein labeling kit); sites not stated
notes: also called biotin-mPDGF-BB

binding result [3]: binds
binding result [4]: binds
binding result (mPDGFR-β on NIH3T3 cells [5]): binds
B2: PRb-CN32 x cotinine scFv-Cκ-scFv fusion protein (bispecific antibody) (bispecific antibody)
chain: LTQPSSVSANLGETVKITCSGGSNAGSYYYGWYQQKSPGSAPVTVIYSNNQRPSDIPSRFSGSTSGSTSTLTITGVQVDDEAVYFCGSGDSSSIAAFGAGTTLTVLGQSSRSSGGGGSSGGGGSAVTLDESGGGLQTPRGTLSLVCKASGFTFSSFNMFWVRQAPGKGLEFVAGISTTGRYTGYGSAVQGRGTISRDNGQSTVRLQLNNLRAEDTGTYYCAKSAGSTYSYWDSDAGLIDAWGHGTEVIVSSTSGGGGSGGGGSGGGGSRTVAAPSVFIFPPSDEQLKSGTASVVCLLNNFYPREAKVQWKVDNALQSGNSQESVTEQDSKDSTYSLSSTLTLSKADYEKHKVYACEVTHQGLSLPVTKSFNRGESGGGGSGGGGSGGGGSDIQMTQSPSSLSASVGDRVTITCQSSQSPYSNEWLSWYQQKPGKAPKLLIYRISTLASGVPSRFSGSRSGTDFTLTISSLQPEDFATYYCAGGYNFGLFLFGQGTKVEIKGQSSRSSGGGGSSGGGGSEVQLVESGGGLVQPGGSLRLSCAASGHLRRRDWMNWVRQAPGKGLEWVAAIGRSGDTYYATWAKGRFTISADTSKNTAYLQMNSLRAEDTAVYYCSRIPYFGWNNGDIWGQGTLVTVSS
notes: also called PRb-32; PRb-CN32 bispecific scFv-Cκ-scFv
IC50 (nM) of relative cell viability (cellular ATP), human pericyte cells, bispecific complexed with cot-duo, with hPDGF-BB [2]: 0.87 nM
IC50 (nM) of relative cell viability (cellular ATP), human pericyte cells, bispecific complexed with cot-duo, without hPDGF-BB [2]: 0.78 nM
